Measurements from patent US20240141072A1 (published 2024).

Experiments:
Test in all cases: Octet BLI; biotinylated huDLL3-IgG1 fusion on streptavidin tips; single 50 nM trispecific, conditioned medium
[1] = biological target: T1, anti-DLL3 trispecific protein with DLL3 binding domain 53A05
T1 construct: trispecific, one chain
Protocol: (§1) Using the conditioned medium with known concentrations of the anti-DLL3 trispecific proteins, the relative binding affinities of the anti-DLL3 trispecific proteins toward human DLL3 protein were measured using a method where biotinylated version of human DLL3 protein were expressed as a human IgG1 fusion protein, and the binding affinity measurement was carried out in an Octet instrument with streptavidin tips.

[2] = biological target: T2, anti-DLL3 trispecific protein with DLL3 binding domain 52C04
T2 construct: trispecific, one chain; also called 52C4
Protocol: as §1

[3] = biological target: T3, anti-DLL3 trispecific protein with DLL3 binding domain 42C03
T3 construct: trispecific, one chain
Protocol: as §1

[4] = biological target: T4, anti-DLL3 trispecific protein with DLL3 binding domain 51E05
T4 construct: trispecific, one chain
Protocol: as §1

[5] = biological target: T5, anti-DLL3 trispecific protein with DLL3 binding domain 42A06
T5 construct: trispecific, one chain
Protocol: as §1

[6] = biological target: T6, anti-DLL3 trispecific protein with DLL3 binding domain 53A04
T6 construct: trispecific, one chain
Protocol: as §1

[7] = biological target: T7, anti-DLL3 trispecific protein with DLL3 binding domain 42E05
T7 construct: trispecific, one chain
Protocol: as §1

[8] = biological target: T8, anti-DLL3 trispecific protein with DLL3 binding domain 41D01
T8 construct: trispecific, one chain
Protocol: as §1

[9] = biological target: T9, anti-DLL3 trispecific protein with DLL3 binding domain 51F03
T9 construct: trispecific, one chain; also called 51F3
Protocol: as §1

[10] = biological target: T10, anti-DLL3 trispecific protein with DLL3 binding domain 42D06
T10 construct: trispecific, one chain
Protocol: as §1

[11] = biological target: T11, anti-DLL3 trispecific protein with DLL3 binding domain 42A11
T11 construct: trispecific, one chain
Protocol: as §1

[12] = biological target: T12, anti-DLL3 trispecific protein with DLL3 binding domain 51A03
T12 construct: trispecific, one chain
Protocol: as §1

[13] = biological target: T13, anti-DLL3 trispecific protein with DLL3 binding domain 41C02
T13 construct: trispecific, one chain
Protocol: as §1

[14] = biological target: T14, anti-DLL3 trispecific protein with DLL3 binding domain 51B11
T14 construct: trispecific, one chain
Protocol: as §1

[15] = biological target: T15, anti-DLL3 trispecific protein with DLL3 binding domain 42H05
T15 construct: trispecific, one chain
Protocol: as §1

[16] = biological target: T16, anti-DLL3 trispecific protein with DLL3 binding domain 41D02
T16 construct: trispecific, one chain
Protocol: as §1

[17] = biological target: T17, anti-DLL3 trispecific protein with DLL3 binding domain 42A07
T17 construct: trispecific, one chain
Protocol: as §1

[18] = biological target: T18, anti-DLL3 trispecific protein with DLL3 binding domain 53B05
T18 construct: trispecific, one chain
Protocol: as §1

[19] = biological target: T19, anti-DLL3 trispecific protein with DLL3 binding domain 42G05
T19 construct: trispecific, one chain
Protocol: as §1

[20] = biological target: T20, anti-DLL3 trispecific protein with DLL3 binding domain 42A08
T20 construct: trispecific, one chain
Protocol: as §1

[21] = biological target: T21, anti-DLL3 trispecific protein with DLL3 binding domain 42E06
T21 construct: trispecific, one chain
Protocol: as §1

[22] = biological target: T22, anti-DLL3 trispecific protein with DLL3 binding domain 42E07
T22 construct: trispecific, one chain
Protocol: as §1

[23] = biological target: T23, anti-DLL3 trispecific protein with DLL3 binding domain 41E01
T23 construct: trispecific, one chain
Protocol: as §1

[24] = biological target: T24, anti-DLL3 trispecific protein with DLL3 binding domain 42D07
T24 construct: trispecific, one chain
Protocol: as §1

[25] = biological target: T25, anti-DLL3 trispecific protein with DLL3 binding domain 51E03
T25 construct: trispecific, one chain
Protocol: as §1

[26] = biological target: T26, anti-DLL3 trispecific protein with DLL3 binding domain 52B01
T26 construct: trispecific, one chain; also called 52B1
Protocol: as §1

[27] = biological target: T27, anti-DLL3 trispecific protein with DLL3 binding domain 51F01
T27 construct: trispecific, one chain
Protocol: as §1

[28] = biological target: T28, anti-DLL3 trispecific protein with DLL3 binding domain 42F10
T28 construct: trispecific, one chain
Protocol: as §1

T9 sequence (chain, as listed by the source): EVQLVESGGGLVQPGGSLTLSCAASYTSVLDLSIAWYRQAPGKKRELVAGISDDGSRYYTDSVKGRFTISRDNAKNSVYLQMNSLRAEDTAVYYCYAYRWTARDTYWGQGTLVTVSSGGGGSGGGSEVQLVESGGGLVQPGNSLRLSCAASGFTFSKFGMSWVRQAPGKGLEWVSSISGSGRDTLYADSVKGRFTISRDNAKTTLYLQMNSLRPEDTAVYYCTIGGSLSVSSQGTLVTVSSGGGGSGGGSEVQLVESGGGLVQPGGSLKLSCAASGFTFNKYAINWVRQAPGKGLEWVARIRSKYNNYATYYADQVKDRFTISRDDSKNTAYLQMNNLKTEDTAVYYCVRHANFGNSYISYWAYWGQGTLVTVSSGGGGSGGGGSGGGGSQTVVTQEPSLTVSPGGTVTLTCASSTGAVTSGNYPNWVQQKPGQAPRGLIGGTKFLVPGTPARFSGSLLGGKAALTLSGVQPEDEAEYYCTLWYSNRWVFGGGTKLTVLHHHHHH
T12 sequence (chain, as listed by the source): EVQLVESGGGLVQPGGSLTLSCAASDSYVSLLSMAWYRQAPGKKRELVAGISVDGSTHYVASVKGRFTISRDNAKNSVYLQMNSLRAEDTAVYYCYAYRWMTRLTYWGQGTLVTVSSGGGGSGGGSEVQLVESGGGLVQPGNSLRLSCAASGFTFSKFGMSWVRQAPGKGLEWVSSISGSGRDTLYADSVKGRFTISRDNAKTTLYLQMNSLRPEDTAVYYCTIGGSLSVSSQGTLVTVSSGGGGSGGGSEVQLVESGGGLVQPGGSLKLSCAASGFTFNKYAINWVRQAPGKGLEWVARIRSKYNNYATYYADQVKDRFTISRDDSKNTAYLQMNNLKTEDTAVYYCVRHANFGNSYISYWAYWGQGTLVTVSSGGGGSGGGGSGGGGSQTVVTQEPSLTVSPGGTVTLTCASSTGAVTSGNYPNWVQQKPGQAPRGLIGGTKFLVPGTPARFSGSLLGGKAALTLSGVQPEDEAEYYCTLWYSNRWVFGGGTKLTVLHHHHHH
T14 sequence (chain, as listed by the source): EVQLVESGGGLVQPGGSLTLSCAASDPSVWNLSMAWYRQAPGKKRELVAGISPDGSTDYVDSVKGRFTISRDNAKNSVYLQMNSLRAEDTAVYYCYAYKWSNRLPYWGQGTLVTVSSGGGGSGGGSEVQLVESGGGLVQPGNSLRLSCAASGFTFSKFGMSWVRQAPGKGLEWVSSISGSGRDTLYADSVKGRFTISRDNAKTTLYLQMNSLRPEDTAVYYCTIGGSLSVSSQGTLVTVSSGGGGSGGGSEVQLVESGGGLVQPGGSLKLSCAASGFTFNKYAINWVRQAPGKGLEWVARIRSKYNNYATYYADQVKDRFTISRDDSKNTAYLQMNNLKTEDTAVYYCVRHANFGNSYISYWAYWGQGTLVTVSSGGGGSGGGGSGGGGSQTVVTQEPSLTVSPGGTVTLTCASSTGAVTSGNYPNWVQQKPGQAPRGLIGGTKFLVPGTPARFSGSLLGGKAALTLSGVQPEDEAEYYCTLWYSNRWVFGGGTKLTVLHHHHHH
T28 sequence (chain, as listed by the source): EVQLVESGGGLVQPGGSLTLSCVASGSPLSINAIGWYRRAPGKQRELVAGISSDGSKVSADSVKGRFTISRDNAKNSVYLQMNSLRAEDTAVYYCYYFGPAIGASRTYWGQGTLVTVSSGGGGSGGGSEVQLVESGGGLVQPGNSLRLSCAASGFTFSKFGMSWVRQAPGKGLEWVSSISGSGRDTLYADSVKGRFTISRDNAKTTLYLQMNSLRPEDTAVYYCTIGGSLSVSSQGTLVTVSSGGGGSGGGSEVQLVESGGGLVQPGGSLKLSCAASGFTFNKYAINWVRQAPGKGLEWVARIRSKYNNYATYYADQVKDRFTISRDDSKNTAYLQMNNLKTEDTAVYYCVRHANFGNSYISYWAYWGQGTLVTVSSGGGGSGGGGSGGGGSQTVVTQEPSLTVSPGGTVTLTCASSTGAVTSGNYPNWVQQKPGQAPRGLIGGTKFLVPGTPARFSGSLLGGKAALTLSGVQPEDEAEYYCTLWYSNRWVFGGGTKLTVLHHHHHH
T20 sequence (chain, as listed by the source): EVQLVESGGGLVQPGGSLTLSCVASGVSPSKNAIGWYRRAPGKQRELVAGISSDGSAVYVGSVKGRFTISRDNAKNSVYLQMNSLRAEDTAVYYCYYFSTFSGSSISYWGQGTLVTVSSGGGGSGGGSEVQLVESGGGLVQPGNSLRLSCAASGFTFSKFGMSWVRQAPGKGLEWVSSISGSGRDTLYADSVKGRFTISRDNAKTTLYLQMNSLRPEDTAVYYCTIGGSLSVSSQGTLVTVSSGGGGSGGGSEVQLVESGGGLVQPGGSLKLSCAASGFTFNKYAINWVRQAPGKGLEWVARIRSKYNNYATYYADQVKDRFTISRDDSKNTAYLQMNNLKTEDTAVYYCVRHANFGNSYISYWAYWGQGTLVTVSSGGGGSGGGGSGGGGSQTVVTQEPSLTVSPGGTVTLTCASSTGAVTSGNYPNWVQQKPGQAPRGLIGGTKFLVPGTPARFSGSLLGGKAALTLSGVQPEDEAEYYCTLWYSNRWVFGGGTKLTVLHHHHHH
T27 sequence (chain, as listed by the source): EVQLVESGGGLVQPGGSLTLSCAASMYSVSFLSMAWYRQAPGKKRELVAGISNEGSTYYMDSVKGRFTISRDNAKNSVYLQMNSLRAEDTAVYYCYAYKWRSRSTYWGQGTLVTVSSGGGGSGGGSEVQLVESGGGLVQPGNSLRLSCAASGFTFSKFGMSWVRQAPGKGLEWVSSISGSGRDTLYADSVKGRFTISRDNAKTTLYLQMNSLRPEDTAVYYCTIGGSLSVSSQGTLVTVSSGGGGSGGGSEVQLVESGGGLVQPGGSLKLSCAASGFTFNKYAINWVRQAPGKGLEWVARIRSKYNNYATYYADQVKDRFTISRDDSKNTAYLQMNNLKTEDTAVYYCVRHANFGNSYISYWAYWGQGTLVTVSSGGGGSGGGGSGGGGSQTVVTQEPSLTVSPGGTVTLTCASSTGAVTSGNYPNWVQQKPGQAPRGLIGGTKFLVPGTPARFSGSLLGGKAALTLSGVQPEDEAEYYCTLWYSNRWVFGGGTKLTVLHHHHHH
T17 sequence (chain, as listed by the source): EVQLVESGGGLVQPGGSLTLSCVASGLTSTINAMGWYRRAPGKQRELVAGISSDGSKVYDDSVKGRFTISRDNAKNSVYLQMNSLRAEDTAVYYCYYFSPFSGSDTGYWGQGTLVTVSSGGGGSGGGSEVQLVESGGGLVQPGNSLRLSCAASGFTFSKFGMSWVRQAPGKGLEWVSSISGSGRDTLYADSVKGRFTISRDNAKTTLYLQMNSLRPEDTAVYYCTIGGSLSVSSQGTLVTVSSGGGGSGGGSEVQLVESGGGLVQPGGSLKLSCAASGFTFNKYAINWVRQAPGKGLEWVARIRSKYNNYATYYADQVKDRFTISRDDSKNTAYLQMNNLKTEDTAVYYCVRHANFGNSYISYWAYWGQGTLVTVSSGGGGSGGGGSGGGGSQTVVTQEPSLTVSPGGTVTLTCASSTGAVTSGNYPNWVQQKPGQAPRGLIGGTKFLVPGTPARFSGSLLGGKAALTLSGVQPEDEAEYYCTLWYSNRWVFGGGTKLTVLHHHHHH
T24 sequence (chain, as listed by the source): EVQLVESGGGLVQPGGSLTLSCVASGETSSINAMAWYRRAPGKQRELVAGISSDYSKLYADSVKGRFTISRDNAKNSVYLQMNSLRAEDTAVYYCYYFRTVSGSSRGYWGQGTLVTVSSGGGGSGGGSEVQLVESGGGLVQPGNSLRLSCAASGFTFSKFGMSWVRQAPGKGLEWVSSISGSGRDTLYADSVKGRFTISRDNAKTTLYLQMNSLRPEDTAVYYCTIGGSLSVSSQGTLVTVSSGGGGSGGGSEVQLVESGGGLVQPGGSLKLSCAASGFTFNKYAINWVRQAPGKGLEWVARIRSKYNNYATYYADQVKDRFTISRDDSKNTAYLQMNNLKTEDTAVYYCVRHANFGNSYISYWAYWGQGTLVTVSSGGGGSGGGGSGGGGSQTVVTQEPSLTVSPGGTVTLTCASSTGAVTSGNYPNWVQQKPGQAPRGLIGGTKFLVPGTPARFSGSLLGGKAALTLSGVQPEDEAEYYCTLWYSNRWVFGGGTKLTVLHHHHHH
T11 sequence (chain, as listed by the source): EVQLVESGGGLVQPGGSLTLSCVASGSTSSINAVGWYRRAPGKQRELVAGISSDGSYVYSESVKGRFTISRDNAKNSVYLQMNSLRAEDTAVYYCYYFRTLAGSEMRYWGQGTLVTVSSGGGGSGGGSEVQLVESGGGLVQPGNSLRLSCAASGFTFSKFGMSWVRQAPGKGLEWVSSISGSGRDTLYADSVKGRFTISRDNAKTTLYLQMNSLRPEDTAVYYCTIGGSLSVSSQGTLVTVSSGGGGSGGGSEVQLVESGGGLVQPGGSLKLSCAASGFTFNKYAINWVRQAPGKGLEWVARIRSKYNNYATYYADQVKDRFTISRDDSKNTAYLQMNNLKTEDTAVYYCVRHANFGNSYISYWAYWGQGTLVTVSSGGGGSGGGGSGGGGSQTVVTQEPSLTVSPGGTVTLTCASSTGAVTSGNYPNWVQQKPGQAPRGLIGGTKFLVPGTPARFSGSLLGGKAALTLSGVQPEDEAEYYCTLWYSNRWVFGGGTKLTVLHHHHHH

B1: biotinylated human DLL3 protein expressed as a human IgG1 fusion protein (Fc fusion, not shown: a dimerising Fc or GST)
chain: AGVFELQIHSFGPGPGPGAPRSPCSARLPCRLFFRVCLKPGLSEEAAESPCALGAALSARGPVYTEQPGAPAPDLPLPDGLLQVPFRDAWPGTFSFIIETWREELGDQIGGPAWSLLARVAGRRRLAAGGPWARDIQRAGAWELRFSYRARCEPPAVGTACTRLCRPRSAPSRCGPGLRPCAPLEDECEAPLVCRAGCSPEHGFCEQPGECRCLEGWTGPLCTVPVSTSSCLSPRGPSSATTGCLVPGPGPCDGNPCANGGSCSETPRSFECTCPRGFYGLRCEVSGVTCADGPCFNGGLCVGGADPDSAYICHCPPGFQGSNCEKRVDRCSLQPCRNGGLCLDLGHALRCRCRAGFAGPRCEHDLDDCAGRACANGGTCVEGGGAHRCSCALGFGGRDCRERADPCAARPCAHGGRCYAHFSGLVCACAPGYMGARCEFPVHPDGASALPAAPPGLRPGDPQRYL
modifications: biotinylated
Kd [1]: 0.31 nM | Kd [2]: 0.82 nM | Kd [3]: 0.88 nM | Kd [4]: 0.97 nM | Kd [5]: 1 nM | Kd [6]: 0.42 nM | Kd [7]: 1.2 nM | Kd [8]: 1.4 nM | Kd [9]: 1.4 nM | Kd [10]: 1.5 nM | Kd [11]: 2 nM | Kd [12]: 2.2 nM | Kd [13]: 2.4 nM | Kd [14]: 2.4 nM | Kd [15]: 2.7 nM | Kd [16]: 2.7 nM | Kd [17]: 3.2 nM | Kd [18]: 0.6 nM | Kd [19]: 3.4 nM | Kd [20]: 3.6 nM | Kd [21]: 3.8 nM | Kd [22]: 3.9 nM | Kd [23]: 5.3 nM | Kd [24]: 5.3 nM | Kd [25]: 7.2 nM | Kd [26]: 0.61 nM | Kd [27]: 16 nM | Kd [28]: 17 nM
